± gives the uncertainty stated by the source.
B1: Protein maelstrom homolog, residues 3 to 71; numbered along this chain, Q96JY0 (parent)
chain: NRKASRNAYYFFVQEKIPELRRRGLPVARVADAIPYCSSDWALLREEEKEKYAEMAREWRAAQGKDPGP

Variants of: B1
Assay: abundance fitness (aPCA) (normalised: wild type 0, dead -1); higher = more abundant; growth selection in yeast, the domain comes from the species named
Details: Homo sapiens

Variant | abundance fitness
NRKASRNAMYFFVQEKIPELRRRGLPVARVADAIPYCSSDWALLREEEKEKYAEMAREWRAAQGKDPGP [Y9M] | 0.026 ± 0.08
NRKASRNATYFFVQEKIPELRRRGLPVARVADAIPYCSSDWALLREEEKEKYAEMAREWRAAQGKDPGP [Y9T] | -0.615 ± 0.12
NRKASRNANYFFVQEKIPELRRRGLPVARVADAIPYCSSDWALLREEEKEKYAEMAREWRAAQGKDPGP [Y9N] | -0.168 ± 0.17
NRKASRNAQYFFVQEKIPELRRRGLPVARVADAIPYCSSDWALLREEEKEKYAEMAREWRAAQGKDPGP [Y9Q] | -0.033 ± 0.11
NRKASRNAEYFFVQEKIPELRRRGLPVARVADAIPYCSSDWALLREEEKEKYAEMAREWRAAQGKDPGP [Y9E] | 0.001 ± 0.11
NRKASRNAFYFFVQEKIPELRRRGLPVARVADAIPYCSSDWALLREEEKEKYAEMAREWRAAQGKDPGP [Y9F] | 0.18 ± 0.18
NRKASRNARYFFVQEKIPELRRRGLPVARVADAIPYCSSDWALLREEEKEKYAEMAREWRAAQGKDPGP [Y9R] | -0.239 ± 0.06
NRKASRNALYFFVQEKIPELRRRGLPVARVADAIPYCSSDWALLREEEKEKYAEMAREWRAAQGKDPGP [Y9L] | -0.007 ± 0.035
NRKASRNAWYFFVQEKIPELRRRGLPVARVADAIPYCSSDWALLREEEKEKYAEMAREWRAAQGKDPGP [Y9W] | -0.242 ± 0.1
NRKASRNAKYFFVQEKIPELRRRGLPVARVADAIPYCSSDWALLREEEKEKYAEMAREWRAAQGKDPGP [Y9K] | -0.037 ± 0.11
NRKASRNAIYFFVQEKIPELRRRGLPVARVADAIPYCSSDWALLREEEKEKYAEMAREWRAAQGKDPGP [Y9I] | -0.09 ± 0.13
NRKASRNAVYFFVQEKIPELRRRGLPVARVADAIPYCSSDWALLREEEKEKYAEMAREWRAAQGKDPGP [Y9V] | -0.222 ± 0.074
NRKASRNAHYFFVQEKIPELRRRGLPVARVADAIPYCSSDWALLREEEKEKYAEMAREWRAAQGKDPGP [Y9H] | -0.137 ± 0.11
NRKASRNAPYFFVQEKIPELRRRGLPVARVADAIPYCSSDWALLREEEKEKYAEMAREWRAAQGKDPGP [Y9P] | -0.338 ± 0.08
NRKASRNAGYFFVQEKIPELRRRGLPVARVADAIPYCSSDWALLREEEKEKYAEMAREWRAAQGKDPGP [Y9G] | -0.61 ± 0.074
NRKASRNASYFFVQEKIPELRRRGLPVARVADAIPYCSSDWALLREEEKEKYAEMAREWRAAQGKDPGP [Y9S] | -0.513 ± 0.1
NRKASRNAYYFFFQEKIPELRRRGLPVARVADAIPYCSSDWALLREEEKEKYAEMAREWRAAQGKDPGP [V13F] | -0.532 ± 0.26
NRKASRNAYYFFLQEKIPELRRRGLPVARVADAIPYCSSDWALLREEEKEKYAEMAREWRAAQGKDPGP [V13L] | -0.32 ± 0.25
NRKASRNAYYFFGQEKIPELRRRGLPVARVADAIPYCSSDWALLREEEKEKYAEMAREWRAAQGKDPGP [V13G] | -0.797 ± 0.45
NRKASRNAYYFFIQEKIPELRRRGLPVARVADAIPYCSSDWALLREEEKEKYAEMAREWRAAQGKDPGP [V13I] | -0.375 ± 0.36
NRKASRNAYYYFVQEKIPELRRRGLPVARVADAIPYCSSDWALLREEEKEKYAEMAREWRAAQGKDPGP [F11Y] | -0.036 ± 0.13
NRKASRNAYYWFVQEKIPELRRRGLPVARVADAIPYCSSDWALLREEEKEKYAEMAREWRAAQGKDPGP [F11W] | -0.371 ± 0.15
NRKASRNAYYNFVQEKIPELRRRGLPVARVADAIPYCSSDWALLREEEKEKYAEMAREWRAAQGKDPGP [F11N] | -0.512 ± 0.28
NRKASRNAYYMFVQEKIPELRRRGLPVARVADAIPYCSSDWALLREEEKEKYAEMAREWRAAQGKDPGP [F11M] | -0.072 ± 0.1
NRKASRNAYYQFVQEKIPELRRRGLPVARVADAIPYCSSDWALLREEEKEKYAEMAREWRAAQGKDPGP [F11Q] | -0.328 ± 0.1
NRKASRNAYYKFVQEKIPELRRRGLPVARVADAIPYCSSDWALLREEEKEKYAEMAREWRAAQGKDPGP [F11K] | -0.94 ± 0.2

Variant | abundance fitness
NRKASRNAYYIFVQEKIPELRRRGLPVARVADAIPYCSSDWALLREEEKEKYAEMAREWRAAQGKDPGP [F11I] | -0.398 ± 0.17
NRKASRNAYYHFVQEKIPELRRRGLPVARVADAIPYCSSDWALLREEEKEKYAEMAREWRAAQGKDPGP [F11H] | -0.107 ± 0.18
NRKASRNAYYTFVQEKIPELRRRGLPVARVADAIPYCSSDWALLREEEKEKYAEMAREWRAAQGKDPGP [F11T] | -0.38 ± 0.18
NRKASRNAYYGFVQEKIPELRRRGLPVARVADAIPYCSSDWALLREEEKEKYAEMAREWRAAQGKDPGP [F11G] | -0.694 ± 0.18
NRKASRNAYYSFVQEKIPELRRRGLPVARVADAIPYCSSDWALLREEEKEKYAEMAREWRAAQGKDPGP [F11S] | -0.526 ± 0.077
NRKASRNAYYRFVQEKIPELRRRGLPVARVADAIPYCSSDWALLREEEKEKYAEMAREWRAAQGKDPGP [F11R] | -0.674 ± 0.091
NRKASRNAYYDFVQEKIPELRRRGLPVARVADAIPYCSSDWALLREEEKEKYAEMAREWRAAQGKDPGP [F11D] | -0.705 ± 0.18
NRKASRNAYYCFVQEKIPELRRRGLPVARVADAIPYCSSDWALLREEEKEKYAEMAREWRAAQGKDPGP [F11C] | -0.313 ± 0.22
NRKASRNAYYLFVQEKIPELRRRGLPVARVADAIPYCSSDWALLREEEKEKYAEMAREWRAAQGKDPGP [F11L] | -0.322 ± 0.07
NRKASRNAYYVFVQEKIPELRRRGLPVARVADAIPYCSSDWALLREEEKEKYAEMAREWRAAQGKDPGP [F11V] | -0.502 ± 0.088
NRKASRNAYYAFVQEKIPELRRRGLPVARVADAIPYCSSDWALLREEEKEKYAEMAREWRAAQGKDPGP [F11A] | -0.265 ± 0.075
NRKASRNAYYPFVQEKIPELRRRGLPVARVADAIPYCSSDWALLREEEKEKYAEMAREWRAAQGKDPGP [F11P] | -0.776 ± 0.16
NRKASRNAYVFFVQEKIPELRRRGLPVARVADAIPYCSSDWALLREEEKEKYAEMAREWRAAQGKDPGP [Y10V] | -0.498 ± 0.092
NRKASRNAYIFFVQEKIPELRRRGLPVARVADAIPYCSSDWALLREEEKEKYAEMAREWRAAQGKDPGP [Y10I] | -0.657 ± 0.2
NRKASRNAYLFFVQEKIPELRRRGLPVARVADAIPYCSSDWALLREEEKEKYAEMAREWRAAQGKDPGP [Y10L] | -0.332 ± 0.072
NRKASRNAYKFFVQEKIPELRRRGLPVARVADAIPYCSSDWALLREEEKEKYAEMAREWRAAQGKDPGP [Y10K] | -0.454 ± 0.08
NRKASRNAYQFFVQEKIPELRRRGLPVARVADAIPYCSSDWALLREEEKEKYAEMAREWRAAQGKDPGP [Y10Q] | -0.254 ± 0.079
NRKASRNAYRFFVQEKIPELRRRGLPVARVADAIPYCSSDWALLREEEKEKYAEMAREWRAAQGKDPGP [Y10R] | -0.358 ± 0.066
NRKASRNAYAFFVQEKIPELRRRGLPVARVADAIPYCSSDWALLREEEKEKYAEMAREWRAAQGKDPGP [Y10A] | -0.403 ± 0.075
NRKASRNAYFFFVQEKIPELRRRGLPVARVADAIPYCSSDWALLREEEKEKYAEMAREWRAAQGKDPGP [Y10F] | 0.085 ± 0.14
NRKASRNAYCFFVQEKIPELRRRGLPVARVADAIPYCSSDWALLREEEKEKYAEMAREWRAAQGKDPGP [Y10C] | -0.643 ± 0.11
NRKASRNAYNFFVQEKIPELRRRGLPVARVADAIPYCSSDWALLREEEKEKYAEMAREWRAAQGKDPGP [Y10N] | 0.15 ± 0.29
NRKASRNAYTFFVQEKIPELRRRGLPVARVADAIPYCSSDWALLREEEKEKYAEMAREWRAAQGKDPGP [Y10T] | -0.427 ± 0.096
NRKASRNAYWFFVQEKIPELRRRGLPVARVADAIPYCSSDWALLREEEKEKYAEMAREWRAAQGKDPGP [Y10W] | -0.175 ± 0.1
NRKASRNAYSFFVQEKIPELRRRGLPVARVADAIPYCSSDWALLREEEKEKYAEMAREWRAAQGKDPGP [Y10S] | -0.552 ± 0.1
NRKASRNAYPFFVQEKIPELRRRGLPVARVADAIPYCSSDWALLREEEKEKYAEMAREWRAAQGKDPGP [Y10P] | -1.07 ± 0.18

Variant | abundance fitness
NRKASRNAYGFFVQEKIPELRRRGLPVARVADAIPYCSSDWALLREEEKEKYAEMAREWRAAQGKDPGP [Y10G] | -0.5 ± 0.07
NRKASRNAYEFFVQEKIPELRRRGLPVARVADAIPYCSSDWALLREEEKEKYAEMAREWRAAQGKDPGP [Y10E] | -0.065 ± 0.08
NRKASRNAYMFFVQEKIPELRRRGLPVARVADAIPYCSSDWALLREEEKEKYAEMAREWRAAQGKDPGP [Y10M] | -0.361 ± 0.09
NRKASRNAYDFFVQEKIPELRRRGLPVARVADAIPYCSSDWALLREEEKEKYAEMAREWRAAQGKDPGP [Y10D] | 0.185 ± 0.18
NRKASRNAYYFCVQEKIPELRRRGLPVARVADAIPYCSSDWALLREEEKEKYAEMAREWRAAQGKDPGP [F12C] | -0.621 ± 0.12
NRKASRNAYYFRVQEKIPELRRRGLPVARVADAIPYCSSDWALLREEEKEKYAEMAREWRAAQGKDPGP [F12R] | -0.797 ± 0.061
NRKASRNAYYFDVQEKIPELRRRGLPVARVADAIPYCSSDWALLREEEKEKYAEMAREWRAAQGKDPGP [F12D] | -0.403 ± 0.13
NRKASRNAYYFMVQEKIPELRRRGLPVARVADAIPYCSSDWALLREEEKEKYAEMAREWRAAQGKDPGP [F12M] | -0.53 ± 0.047
NRKASRNAYYFSVQEKIPELRRRGLPVARVADAIPYCSSDWALLREEEKEKYAEMAREWRAAQGKDPGP [F12S] | -0.7 ± 0.12
NRKASRNAYYFHVQEKIPELRRRGLPVARVADAIPYCSSDWALLREEEKEKYAEMAREWRAAQGKDPGP [F12H] | -0.847 ± 0.26
NRKASRNAYYFEVQEKIPELRRRGLPVARVADAIPYCSSDWALLREEEKEKYAEMAREWRAAQGKDPGP [F12E] | -0.778 ± 0.11
NRKASRNAYYFWVQEKIPELRRRGLPVARVADAIPYCSSDWALLREEEKEKYAEMAREWRAAQGKDPGP [F12W] | -0.404 ± 0.068
NRKASRNAYYFNVQEKIPELRRRGLPVARVADAIPYCSSDWALLREEEKEKYAEMAREWRAAQGKDPGP [F12N] | -0.624 ± 0.18
NRKASRNAYYFLVQEKIPELRRRGLPVARVADAIPYCSSDWALLREEEKEKYAEMAREWRAAQGKDPGP [F12L] | -0.713 ± 0.072
NRKASRNAYYFPVQEKIPELRRRGLPVARVADAIPYCSSDWALLREEEKEKYAEMAREWRAAQGKDPGP [F12P] | -0.869 ± 0.099
NRKASRNAYYFYVQEKIPELRRRGLPVARVADAIPYCSSDWALLREEEKEKYAEMAREWRAAQGKDPGP [F12Y] | 0.013 ± 0.1
NRKASRNAYYFVVQEKIPELRRRGLPVARVADAIPYCSSDWALLREEEKEKYAEMAREWRAAQGKDPGP [F12V] | -0.757 ± 0.077
NRKASRNAYYFKVQEKIPELRRRGLPVARVADAIPYCSSDWALLREEEKEKYAEMAREWRAAQGKDPGP [F12K] | -0.851 ± 0.11
NRKASRNAYYFIVQEKIPELRRRGLPVARVADAIPYCSSDWALLREEEKEKYAEMAREWRAAQGKDPGP [F12I] | -0.97 ± 0.23
NRKASRNAYYFGVQEKIPELRRRGLPVARVADAIPYCSSDWALLREEEKEKYAEMAREWRAAQGKDPGP [F12G] | -0.531 ± 0.064
NRKASRNAYYFFVCEKIPELRRRGLPVARVADAIPYCSSDWALLREEEKEKYAEMAREWRAAQGKDPGP [Q14C] | -0.148 ± 0.081
NRKASRNAYYFFVEEKIPELRRRGLPVARVADAIPYCSSDWALLREEEKEKYAEMAREWRAAQGKDPGP [Q14E] | 0.135 ± 0.08
NRKASRNAYYFFVAEKIPELRRRGLPVARVADAIPYCSSDWALLREEEKEKYAEMAREWRAAQGKDPGP [Q14A] | -0.171 ± 0.067
NRKASRNAYYFFVGEKIPELRRRGLPVARVADAIPYCSSDWALLREEEKEKYAEMAREWRAAQGKDPGP [Q14G] | -0.303 ± 0.068
NRKASRNAYYFFVDEKIPELRRRGLPVARVADAIPYCSSDWALLREEEKEKYAEMAREWRAAQGKDPGP [Q14D] | 0.054 ± 0.098
NRKASRNAYYFFVFEKIPELRRRGLPVARVADAIPYCSSDWALLREEEKEKYAEMAREWRAAQGKDPGP [Q14F] | -0.299 ± 0.12
